In assay [1] the target is T1, human TSLP-Fc (human, biotin-labeled).
T1 construct: Prepared in-house; also called biotin-labeled human TSLP-Fc; TSLP-Fc-biotin
Kind of assay: cell-based ligand-blocking FACS: antibody pre-mixed with human TSLP-Fc; blocked binding to BAF3-3E6 cells expressing human TSLPR and IL7R.

Assay [2] deals with T2, Recombinant cynomolgus monkey TSLP-his (cynomolgus monkey).
T2 construct: Prepared in-house; Amine-coupled to CM5 chip in SPR, coated on plates in the indirect ELISA; also called cynomolgus TSLP; cynomolgus TSLP-his protein
T2 chain: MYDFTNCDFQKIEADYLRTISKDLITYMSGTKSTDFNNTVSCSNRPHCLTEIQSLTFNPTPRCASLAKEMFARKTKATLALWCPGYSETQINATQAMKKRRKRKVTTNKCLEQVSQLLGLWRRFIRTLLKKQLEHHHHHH
Kind of assay: SPR, BIAcore; protocol of Example 2. (In general: In SPR one partner is held on a chip, and binding of the other changes the refractive index at the surface.)

The target of assay [3] is T3, Recombinant human TSLP-his (human, UniProt Q969D9 29-159).
T3 construct: Prepared in-house; Amine-coupled to CM5 chip in SPR, loaded on APS sensors in Octet, biotin-labeled in the capture ELISA, unlabeled in the cell functional assays; also called human TSLP-his protein
Nature of the assay: SPR, BIAcore; protocol of Example 2.

Assay [4] concerns the target T1, human TSLP-Fc. Kind of assay: competitive ELISA: antibody pre-mixed with biotin-labeled human TSLP-Fc; blocked binding to coated Tezepelumab.
In assay [5] the target is T1, human TSLP-Fc. Nature of the assay: cell-based ligand-blocking FACS: antibody pre-mixed with human TSLP-Fc; blocked binding to BAF3-3E6 cells expressing human TSLPR and IL7R. This is another data set of the same source.
The target in assay [6] is T3, Recombinant human TSLP-his. Nature of the assay: capture ELISA: antibody captured on anti-IgG Fc coat, biotin-labeled human TSLP-his detected with streptavidin-HRP. In general terms: An ELISA detects its analyte on a solid surface through an enzyme-linked reagent.
Assay [7] has as its target T1, human TSLP-Fc. Kind of assay: competitive ELISA: antibody pre-mixed with biotin-labeled human TSLP-Fc; blocked binding to coated Tezepelumab. This is another data set of the same source.
Assay [8] concerns the target T1, human TSLP-Fc. Nature of the assay: competitive ELISA: antibody pre-mixed with biotin-labeled human TSLP-Fc; blocked binding to coated human TSLPR-Fc/IL7Ra-Fc.
Assay [9] concerns the target T2, Recombinant cynomolgus monkey TSLP-his. Kind of assay: indirect ELISA on coated cynomolgus TSLP-his.
The target in assay [10] is T3, Recombinant human TSLP-his. Kind of assay: capture ELISA: antibody captured on anti-IgG Fc coat, biotin-labeled human TSLP-his detected with streptavidin-HRP. This is another data set of the same source.
Assay [11] has as its target T1, human TSLP-Fc. Nature of the assay: competitive ELISA: antibody pre-mixed with biotin-labeled human TSLP-Fc; blocked binding to coated human TSLPR-Fc/IL7Ra-Fc. The source holds these as a separate data set.
The target of assay [12] is T3, Recombinant human TSLP-his. Nature of the assay: SPR, Biacore T200; protocol of Example 2.
For assay [13], the target named is T3, Recombinant human TSLP-his. Kind of assay: SPR, Biacore T200; below the instrument limit, roughly calculated from the sensorgram.

Substitutions are numbered along the chain they refer to. Where two headings read alike, the source gives them in different places.

B1: hu1C5F12E9-V8 (IgG4) (antibody)
heavy: not shown
light: DIQMTQSPSSLSASVGDRVTITCRPTENIYSYLAWYQQKPGKAPKLLIYFARTLAEGVPSRFSGSGSGTDFTLTISSLQPEDFATYYCQHHYGTPWTFGGGTKVEIKRTVAAPSVFIFPPSDEQLKSGTASVVCLLNNFYPREAKVQWKVDNALQSGNSQESVTEQDSKDSTYSLSSTLTLSKADYEKHKVYACEVTHQGLSSPVTKSFNRGEC
notes: also called huC5F12E9-V8
The IC50 is the midpoint of a concentration-inhibition curve. A word on the Kd: it is the equilibrium constant for the complex coming apart. By EC50 is commonly meant the midpoint of the concentration-response curve. Consider B1, for which the IC50 was 2380 pM in assay [1]; 1060 pM in [4]; around 1100 pM in assay [5]; 381 pM in assay [7]; 146 pM in assay [8]. Moreover, the values for the dissociation constant (Kd) in assay [2] and in assay [3] were below 32.8 pM and below 59.8 pM, respectively. Besides, the values for the EC50 in assay [6], in assay [9] and in assay [10] were 173 pM, 170 pM and 124 pM, respectively.

B2: hu1C5F12E9-V8 (IgG1) (antibody)
heavy: not shown
light: B1 light
notes: Humanized, human IgG1/kappa
In the case of B2, the IC50 in assay [4] is 780 pM; in assay [5], around 1120 pM; in [11], 707 pM. The EC50 in assay [10] stood at 116 pM.

B3: hu1C5F12E9-V14 (IgG4) (antibody)
heavy: not shown
light: B1 light with A43S
notes: also called huC5F12E9-V14
Usually koff stands for the first-order rate constant of dissociation. A word on the kon: it is a measure of how fast the partners come together. Turning to B3, the IC50 in assay [1] is around 3070 pM; in [4], 909 pM; in assay [5], around 1090 pM; in assay [7], 403 pM; in [8], 123 pM; in assay [11], 958 pM. In addition, the Kd in assay [2] is below 32.2 pM; in assay [3], below 61 pM; in [12], below 95.6 pM. Moreover, the koff in [2] is below 1e-05 s⁻¹; in assay [3], below 1e-05 s⁻¹; in assay [12], below 1e-05 s⁻¹; in [13] it was around 3.21e-06 s⁻¹. Further, the kon in assay [2] was determined as 311000 M⁻¹ s⁻¹; in assay [3], 164000 M⁻¹ s⁻¹; in assay [12] it was 105000 M⁻¹ s⁻¹. For the same molecule, the EC50 in assay [6] came out at 169 pM; in [9] it was 151 pM; in assay [10] it was 102 pM.

B4: hu1C5F12E9-V14 (IgG1) (antibody)
heavy: not shown
light: B1 light with A43S
notes: Humanized, human IgG1/kappa
In the case of B4, the IC50 in assay [4] was 806 pM; in [5], around 1140 pM; in assay [11], 758 pM. Further, the EC50 in [10] is 110 pM.

B5: hu1C5F12E9-V15 (antibody, human IgG4 S228P, kappa, V domains shown)
VH: QVQLVQSGAEVKKPGASVKVSCKASGYTFTTYWMHWVRQAPGQGLEWMGVIDPSDSDTTYNQKFKGRVTMTVDTSTSTVYMELSSLRSEDTAVYYCTRSLDGYYDYWGQGTLVTVSS
VL: DIQMTQSPSSLSASVGDRVTITCRPTENIYSYLAWYQQKPGKSPKLLIYFARTLAEGVPSRFSGSGSGTDFTLTISSLQPEDFATYYCQHHYGTPWTFGGGTKVEIKR
On to B5, for which, in [12], the Kd was below 89.3 pM, the koff is below 1e-05 s⁻¹ and the on-rate constant (kon) is 112000 M⁻¹ s⁻¹. Moreover, the koff in assay [13] is around 3.63e-06 s⁻¹.

B6: hu1C5F12E9-V17 (antibody, human IgG4 S228P, kappa, V domains shown)
VH: B5 VH with R67K, V68A, V72R
VL: B5 VL
Turning to B6, in assay [12], the Kd was below 90.9 pM, the koff was below 1e-05 s⁻¹ and the kon turned out to be 110000 M⁻¹ s⁻¹. Also, in assay [13], the koff was around 6.43e-06 s⁻¹.

B7: hu1C5F12E9-V18 (antibody, human IgG4 S228P, kappa, V domains shown)
VH: B5 VH with R67K, V68A
VL: B5 VL
Consider B7, for which, in assay [12], the Kd is below 82.6 pM, the koff is below 1e-05 s⁻¹ and the association rate constant (kon) is 121000 M⁻¹ s⁻¹. For the same molecule, the koff in assay [13] was around 9.65e-06 s⁻¹.

(Values after US20220289833A1 (BIOSION, published 2022).)
